Laboratory results taken from patent US20140213523A1 (TIVORSAN PHARMACEUTICALS, published 2014).

Target: the molecule itself
Assay: Analytical ultracentrifugation (sedimentation velocity) at three concentrations, 20 mM Tris pH 8, 0.5 M NaCl, 20 °C; self-association of T2-rhBGN (M form to D form)
Protocol: FIG. 1. Analytical ultracentrifugation of HIC pool purified from CHO clone 57.
T2-rhBGN was purified from conditioned media of CHO clone 57 and 171 and HEK 293 clone 2 by a combination of anion exchange and hydrophobic interaction (HIC). Analytical ultracentrifugation (AUC) of HIC pool purified from CHO Clone 57 resolved into two sedimentation peaks: M with a sedimentation coefficient: s_{20,w}≈2.88 and D with coefficient s_{20,w}≈4.28 (FIG. 1). […] Experiments were performed at 20° C., in a Beckman Optima XL-I analytical ultracentrifuge. Spin Analytical charcoal upon 12 mm double-sector centerpieces were used in an eight-hole AN 50 Ti rotor at 45,000 rpm. Radial absorption scans were measured at λ=280 nm. Sedfit 12.44 was used for data analysis, with a 68% confidence limit (analyticalultracentrifugation.com). Sedimentation coefficients were corrected to standard s_{20,w} conditions using the experimental buffer density and buffer viscosity as calculated with […] (sednterp.unh.edu). Buffer: 20 mM Tris, pH 8, 0.5M NaCl; viscosity=0.01002 Poise; density=1.004989 g/mL. Partial specific volume, v-bar=0.74413 mL/g calculated from amino acid composition with Sednterp.

B1: T2-rhBGN (T2 recombinant human biglycan) (other)
chain: DEEAAGADTAGVLDPDSVTPTYSAMCPFGCHCHLRVVQCSDLGLKSVPKEISPDTTLLDLQNNDISELRKDDFKGLQHLYALVLVNNKISKIHEKAFSPLRKLQKLYISKNHLVEIPPNLPSSLVELRIHDNRIRKVPKGVFSGLRNMNCIEMGGNPLENSGFEPGAFDGLKLNYLRISEAKLTGIPKDLPETLNELHLDHNKIQAIELEDLLRYSKLYRLGLGHNQIRMIENGSLSFLPTLRELHLDNNKLARVPSGLPDLKLLQVVYLHSNNITKVGVNDFCPMGFGVKRAYYNGISLFNNPVPYWEVQPATFRCVTDRLAIQFGNYKK
modifications: N-linked glycans (M and D forms differ in N-glycan profile); no GAG side chains
notes: Purified from conditioned medium of CHO clone 57 by anion exchange and HIC; The pool is a mixture of the M form (generally monomeric) and the D form (generally dimeric); No tags are stated; also called HIC pool; M-rhBGN
  Kd: ~50 µM
